Assay results from the Human Domainome abundance scans (Beltran et al. 2025).
± gives the uncertainty stated by the source.

B1: PDZ and LIM domain protein 2, residues 284 to 339; numbered along this chain, Q96JY6 (parent)
chain: HTCEKCSTSIANQAVRIQEGRYRHPGCYTCADCGLNLKMRGHFWVGDELYCEKHAR

Variants of: B1
Assay: abundance fitness (aPCA) (normalised: wild type 0, dead -1); higher = more abundant; growth selection in yeast, the domain comes from the species named
Conditions: Homo sapiens

Variant | abundance fitness
HTCEKCSTSIANQAVRIQEGRYRHPGCYTCADCGLNLKMRGHFWVGDELYCIKHAR | -0.468 ± 0.14
HTCEKCSTSIANQAVRIQEGRYRHPGCYTCADCGLNLKMRGHFWVGDELYCPKHAR | 0.183 ± 0.12
HTCEKCSTSIANQAVRIQEGRYRHPGCYTCADCGLNLKMRGHFWVGDELYCFKHAR | -0.075 ± 0.14
HTCEKCSTSIANQAVRIQEGRYRHPGCYTCADCGLNLKMRGHFWVGDELYCDKHAR | 0.029 ± 0.062
HTCEKCSTSIANQAVRIQEGRYRHPGCYTCADCGLNLKMRGHFWVGDELYCQKHAR | -0.102 ± 0.22
HTCEKCSTSIANQAVRIQEGRYRHPGCYTCADCGLNLKMRGHFWVGDELYCKKHAR | -0.226 ± 0.095
HTCEKCSTSIANQAVRIQEGRYRHPGCYTCADCGLNLKMRGHFWVGDELYCAKHAR | -0.183 ± 0.059
HTCEKCSTSIANQAVRIQEGRYRHPGCYTCADCGLNLKMRGHFWVGDELYCWKHAR | -0.108 ± 0.11
HTCEKCSTSIANQAVRIQEGRYRHPGCYTCADCGLNLKMRGHFWVGDELYCCKHAR | -0.246 ± 0.1
HTCEKCSTSIANQAVRIQEGRYRHPGCYTCADCGLNLKMRGHFWVGDELYCNKHAR | 0.18 ± 0.13
HTCEKCSTSIANQAVRIQEGRYRHPGCYTCADCGLNLKMRGHFWVGDELYCLKHAR | -0.156 ± 0.098
HTCEKCSTSIANQAVRIQEGRYRHPGCYTCADCGLNLKMRGHFWVGDELYCRKHAR | -0.256 ± 0.064
HTCEKCSTSIANQAVRIQEGRYRHPGCYTCADCGLNLKMRGHFWVGDELYCVKHAR | -0.605 ± 0.15
HTCEKCSTSIANQAVRIQEGRYRHPGCYTCADCGLNLKMRGHFWVGDELYCMKHAR | -0.152 ± 0.08
HTCEKCSTSIANQAVRIQEGRYRHPGCYTCADCGLNLKMRGHFWVGDELYCSKHAR | -0.352 ± 0.094
HTCEKCSTSIANQAVRIQEGRYRHPGCYTCADCGLNLKMRGHFWVGDELYCEKDAR | 0.128 ± 0.065
HTCEKCSTSIANQAVRIQEGRYRHPGCYTCADCGLNLKMRGHFWVGDELYCEKGAR | -0.317 ± 0.12
HTCEKCSTSIANQAVRIQEGRYRHPGCYTCADCGLNLKMRGHFWVGDELYCEKKAR | -0.7 ± 0.33
HTCEKCSTSIANQAVRIQEGRYRHPGCYTCADCGLNLKMRGHFWVGDELYCEKCAR | 0.135 ± 0.084
HTCEKCSTSIANQAVRIQEGRYRHPGCYTCADCGLNLKMRGHFWVGDELYCEKAAR | -0.865 ± 0.29
HTCEKCSTSIANQAVRIQEGRYRHPGCYTCADCGLNLKMRGHFWVGDELYCEKIAR | -0.755 ± 0.093
HTCEKCSTSIANQAVRIQEGRYRHPGCYTCADCGLNLKMRGHFWVGDEIYCEKHAR | 0.117 ± 0.18
HTCEKCSTSIANQAVRIQEGRYRHPGCYTCADCGLNLKMRGHFWVGDEYYCEKHAR | -0.269 ± 0.25
HTCEKCSTSIANQAVRIQEGRYRHPGCYTCADCGLNLKMRGHFWVGDEWYCEKHAR | -0.39 ± 0.11

Variant | abundance fitness
HTCEKCSTSIANQAVRIQEGRYRHPGCYTCADCGLNLKMRGHFWVGDEAYCEKHAR | -0.159 ± 0.068
HTCEKCSTSIANQAVRIQEGRYRHPGCYTCADCGLNLKMRGHFWVGDESYCEKHAR | -0.341 ± 0.081
HTCEKCSTSIANQAVRIQEGRYRHPGCYTCADCGLNLKMRGHFWVGDERYCEKHAR | -0.885 ± 0.13
HTCEKCSTSIANQAVRIQEGRYRHPGCYTCADCGLNLKMRGHFWVGDENYCEKHAR | -0.942 ± 0.47
HTCEKCSTSIANQAVRIQEGRYRHPGCYTCADCGLNLKMRGHFWVGDETYCEKHAR | -0.207 ± 0.097
HTCEKCSTSIANQAVRIQEGRYRHPGCYTCADCGLNLKMRGHFWVGDECYCEKHAR | -0.108 ± 0.066
HTCEKCSTSIANQAVRIQEGRYRHPGCYTCADCGLNLKMRGHFWVGDEHYCEKHAR | -0.343 ± 0.062
HTCEKCSTSIANQAVRIQEGRYRHPGCYTCADCGLNLKMRGHFWVGDEVYCEKHAR | -0.075 ± 0.086
HTCEKCSTSIANQAVRIQEGRYRHPGCYTCADCGLNLKMRGHFWVGDEGYCEKHAR | -0.286 ± 0.068
HTCEKCSTSIANQAVRIQEGRYRHPGCYTCADCGLNLKMRGHFWVGDEQYCEKHAR | -0.174 ± 0.12
HTCEKCSTSIANQAVRIQEGRYRHPGCYTCADCGLNLKMRGHFWVGDEPYCEKHAR | -0.154 ± 0.12
HTCEKCSTSIANQAVRIQEGRYRHPGCYTCADCGLNLKMRGHFWVGDEFYCEKHAR | -0.343 ± 0.19
HTCEKCSTSIANQAVRIQEGRYRHPGCYTCADCGLNLKMRGHFWVGDEEYCEKHAR | -0.377 ± 0.081
HTCEKCSTSIANQAVRIQEGRYRHPGCYTCADCGLNLKMRGHFWVGDEKYCEKHAR | -0.733 ± 0.14
HTCEKCSTSIANQAVRIQEGRYRHPGCYTCADCGLNLKMRGHFWVGDEMYCEKHAR | -0.205 ± 0.13
HTCEKCSTSIANQAVRIQEGRYRHPGCYTCADCGLNLKMRGHFWVGDELYCEYHAR | 0.252 ± 0.2
HTCEKCSTSIANQAVRIQEGRYRHPGCYTCADCGLNLKMRGHFWVGDELYCERHAR | -0.124 ± 0.06
HTCEKCSTSIANQAVRIQEGRYRHPGCYTCADCGLNLKMRGHFWVGDELYCEVHAR | 0.007 ± 0.085
HTCEKCSTSIANQAVRIQEGRYRHPGCYTCADCGLNLKMRGHFWVGDELYCEAHAR | -0.198 ± 0.13
HTCEKCSTSIANQAVRIQEGRYRHPGCYTCADCGLNLKMRGHFWVGDELYCENHAR | -0.056 ± 0.094
HTCEKCSTSIANQAVRIQEGRYRHPGCYTCADCGLNLKMRGHFWVGDELYCESHAR | 0.184 ± 0.088
HTCEKCSTSIANQAVRIQEGRYRHPGCYTCADCGLNLKMRGHFWVGDELYCEGHAR | -0.158 ± 0.081
HTCEKCSTSIANQAVRIQEGRYRHPGCYTCADCGLNLKMRGHFWVGDELYCEIHAR | -0.275 ± 0.18
